Laboratory results taken from patent US20150086555A1.

B1: TCN-540 (5060_F05) (antibody, V domains shown)
VH: QVQLVQSGGGVVQPGRSLRLSCAASGFTFSSYAMHWVRQAPGKGLEWVAIISYDGNDQYYTDSVKGRFTISRDSSKVYLQMHRLRPEDTAVYYCAKEFETSGYFHGSFDYWGQGILVTVSS
VL: QSALTQPASVSGSPGQSITISCTGTSSDVGGYNYVSWYQQHPGKAPKLLIYEVTNWPSGVSNRFSGSKSGNTASLTISGLQAEDEADYYCSSYAGSSTWVFGGGTRVTVL
B2: TCN-527 (5086_C06) (antibody, V domains shown)
VH: QVQLQESGPGLVKPSETLSLNCAVSGGSISNYYWSWIRQPPGKGLEWIGYISYNGRPKYNPSLTSRVTISVDTSKDQFSLELRSVTAADTALYYCARETRFGELLSPYDAFEIWGQGTMVTVSS
VL: DIQMTQSPSSLSASVGDRVTMTCRASQNIRSYLNWYQQRPGTAPKLLIYAASTLHSGVPSRFSGGGSGTDFTLTINNLQPEDFASYYCQQSYDNPQTFGQGTKVEIK
B3: TCN-536 (5095_N01) (antibody, V domains shown)
VH: QVQLQQWGAGLLKPSETLSLTCAVYGGSFSVSGYYWSWIRQPPGRGLEWIGEISHGGSTNYNPSLKSRVTISVDTTKNQFSLRLSSVTAADTAVYYCARGTDPDTEVYCRVGNCAAFDYWGQGSLVTVSS
VL: EIILAQSPGTLSLSPGERATLSCRASQFVSTRSLAWYQQRPGQAPRLLIYGASSRATGIPDRFSGSGSGTDFTLTISRLEPEDFAVYYCQHYGYSPRYAFGQGSKVEIK
B4: TCN-528 (5087_P17) (antibody, V domains shown)
VH: QVQLVQSGSEVKKPGASVKVSCKASGYTFTNYDINWIRQAPGQGLEWMGWINPNSGTTGSAQRFQGRVTITVDTSITTVYMELSSLRSDDTAIYYCARGRELLRLQHFLTDSQSERRDCFDPWGQGTLVTVSS
VL: DIQMTQSPSSLSASVGDRVTITCRANQDIGIYLNWYQQNPGKVPKLLLHGASSLQGGVPSRFSASGSGTDFTLTIHSLQPEDLATYYCQQSRRLPYTFGQGTRVELK

target: recombinant soluble homotrimeric HA of A/Anhui/1/05 (H5N1) (Influenza A virus A/Anhui/1/2005(H5N1)); experiment: HA microarray, BCC supernatant; settings: remark: other sources report otherwise

Binder | Trimeric HA Binding: RLU [RLU]
B1 | 25
B2 | 21400
B3 | 543
B4 | 49800

target: recombinant soluble homotrimeric HA of A/California/4/09 (H1N1) (Influenza A virus A/California/04/2009(H1N1)); experiment: HA microarray, BCC supernatant; settings: remark: other sources report otherwise

Binder | Trimeric HA Binding: RLU [RLU]
B1 | 57
B2 | 28000
B3 | 151
B4 | 48800

target: recombinant soluble homotrimeric HA of A/Hong Kong/2108/03 (H9N2) (Influenza A virus A/HK/2108/2003(H9N2)); experiment: HA microarray, BCC supernatant; settings: remark: other sources report otherwise

Binder | Trimeric HA Binding: RLU [RLU]
B1 | 22
B2 | 16000
B3 | 1570
B4 | 42000

target: recombinant soluble homotrimeric HA of A/Indonesia/5/05 (H5N1) (Influenza A virus A/Indonesia/5/2005(H5N1)); experiment: HA microarray, BCC supernatant; settings: remark: other sources report otherwise

Binder | Trimeric HA Binding: RLU [RLU]
B1 | 31
B2 | 23800
B4 | 42800

target: recombinant soluble homotrimeric HA of A/Japan/305/57 (H2N2) (Influenza A virus A/Japan/305/1957(H2N2)); experiment: HA microarray, BCC supernatant; settings: remark: other sources report otherwise

Binder | Trimeric HA Binding: RLU [RLU]
B1 | 2970
B2 | 19300
B3 | 121
B4 | 46400

target: recombinant soluble homotrimeric HA of A/Netherlands/219/03 (H7N7) (Influenza A virus A/Netherlands/219/03(H7N7)); experiment: HA microarray, BCC supernatant; settings: remark: other sources report otherwise

Binder | Trimeric HA Binding: RLU [RLU]
B1 | 381
B2 | 8890
B3 | 976
B4 | 49300

target: recombinant soluble homotrimeric HA of A/Solomon Islands/3/06 (H1N1) (Influenza A virus A/Solomon Islands/3/2006(H1N1)); experiment: HA microarray, BCC supernatant; settings: remark: other sources report otherwise

Binder | Trimeric HA Binding: RLU [RLU]
B1 | 64
B2 | 16500
B4 | 44800

target: recombinant soluble homotrimeric HA of A/Vietnam/1203/04 (H5N1) (Influenza A virus A/VietNam/1203/2004(H5N1)); experiment: HA microarray, BCC supernatant; settings: remark: other sources report otherwise

Binder | Trimeric HA Binding: RLU [RLU]
B1 | 63
B2 | 21300
B3 | 146
B4 | 45600

target: recombinant soluble homotrimeric HA of A/Wisconsin/67/05 (H3N2) (Influenza A virus A/Wisconsin/67/2005(H3N2)); experiment: HA microarray, BCC supernatant; settings: remark: other sources report otherwise

Binder | Trimeric HA Binding: RLU [RLU]
B1 | 728
B2 | 5720
B3 | 35000
B4 | 48800

target: recombinant soluble homotrimeric HA of A/chicken/Vietnam/NCVD-016/08 (H5N1) (Influenza A virus A/chicken/Vietnam/NCVD-016/2008(H5N1)); experiment: HA microarray, BCC supernatant; settings: remark: other sources report otherwise

Binder | Trimeric HA Binding: RLU [RLU]
B1 | 70
B2 | 27000
B3 | 287
B4 | 38200

target: recombinant soluble homotrimeric HA of A/duck/Yangzhou/02/05 (H8N4) (Influenza A virus A/duck/Yangzhou/02/2005(H8N4)); experiment: HA microarray, BCC supernatant; settings: remark: other sources report otherwise

Binder | Trimeric HA Binding: RLU [RLU]
B1 | 117
B2 | 28800
B3 | 436
B4 | 38400

target: recombinant soluble homotrimeric HA of A/northern shoveler/California/HKWF115/07 (H6) (Influenza A virus A/northern shoveler/California/HKWF115/2007(H6N1)); experiment: HA microarray, BCC supernatant; settings: remark: other sources report otherwise

Binder | Trimeric HA Binding: RLU [RLU]
B1 | 131
B2 | 30300
B3 | 2210
B4 | 46800

target: recombinant soluble homotrimeric HA of A/swine/Ontario/01911-2/99 (H4N6) (Influenza A virus A/Swine/Ontario/01911-2/99 (H4N6)); experiment: HA microarray, BCC supernatant; settings: remark: other sources report otherwise

Binder | Trimeric HA Binding: RLU [RLU]
B1 | 178
B2 | 7690
B3 | 79
B4 | 47500

target: recombinant homotrimeric HA A/Anhui/1/05 H5N1 (Influenza A virus A/Anhui/1/2005(H5N1)); experiment: protein microarray, purified IgG, trimeric HA; settings: remark: other sources report otherwise

Binder | Trimeric HA Binding: RLU [RLU]
B1 | 769
B2 | 24700
B3 | 8860
B4 | 28800

target: recombinant homotrimeric HA A/California/4/09 H1N1 (Influenza A virus A/California/04/2009(H1N1)); experiment: protein microarray, purified IgG, trimeric HA; settings: remark: other sources report otherwise

Binder | Trimeric HA Binding: RLU [RLU]
B1 | 266
B2 | 18600
B3 | 298
B4 | 6810

target: recombinant homotrimeric HA A/Egypt/3300-NAMRU3/08 H5N1 (Influenza A virus A/Egypt/3300-NAMRU3/2008(H5N1)); experiment: protein microarray, purified IgG, trimeric HA; settings: remark: other sources report otherwise

Binder | Trimeric HA Binding: RLU [RLU]
B1 | 860
B2 | 23900
B3 | 4710
B4 | 25600

target: recombinant homotrimeric HA A/Hong Kong/156/97 H5N1 (Influenza A virus A/Hong Kong/156/97 (H5N1)); experiment: protein microarray, purified IgG, trimeric HA; settings: remark: other sources report otherwise

Binder | Trimeric HA Binding: RLU [RLU]
B1 | 465
B2 | 28600
B3 | 732
B4 | 25700

target: recombinant homotrimeric HA A/Hong Kong/2108/03 H9N2 (Influenza A virus A/HK/2108/2003(H9N2)); experiment: protein microarray, purified IgG, trimeric HA; settings: remark: other sources report otherwise

Binder | Trimeric HA Binding: RLU [RLU]
B1 | 164
B2 | 18700
B4 | 23600

target: recombinant homotrimeric HA A/Indonesia/5/05 H5N1 (Influenza A virus A/Indonesia/5/2005(H5N1)); experiment: protein microarray, purified IgG, trimeric HA; settings: remark: other sources report otherwise

Binder | Trimeric HA Binding: RLU [RLU]
B1 | 139
B2 | 29600
B4 | 27000

target: recombinant homotrimeric HA A/Japan/305/57 H2N2 (Influenza A virus A/Japan/305/1957(H2N2)); experiment: protein microarray, purified IgG, trimeric HA; settings: remark: other sources report otherwise

Binder | Trimeric HA Binding: RLU [RLU]
B1 | 29000
B2 | 27000
B3 | 771
B4 | 30100

target: recombinant homotrimeric HA A/Netherlands/219/03 H7N7 (Influenza A virus A/Netherlands/219/03(H7N7)); experiment: protein microarray, purified IgG, trimeric HA; settings: remark: other sources report otherwise

Binder | Trimeric HA Binding: RLU [RLU]
B1 | 191
B2 | 15200
B3 | 186
B4 | 16700

target: recombinant homotrimeric HA A/Solomon Islands/3/06 H1N1 (Influenza A virus A/Solomon Islands/3/2006(H1N1)); experiment: protein microarray, purified IgG, trimeric HA; settings: remark: other sources report otherwise

Binder | Trimeric HA Binding: RLU [RLU]
B1 | 9360
B2 | 22900
B4 | 25400

target: recombinant homotrimeric HA A/South Carolina/1/18 H1N1 (Influenza A virus A/South Carolina/1/18 (H1N1)); experiment: protein microarray, purified IgG, trimeric HA; settings: remark: other sources report otherwise

Binder | Trimeric HA Binding: RLU [RLU]
B1 | 139
B2 | 314
B3 | 160
B4 | 16900

target: recombinant homotrimeric HA A/Vietnam/1203/04 H5N1 (Influenza A virus A/VietNam/1203/2004(H5N1)); experiment: protein microarray, purified IgG, trimeric HA; settings: remark: other sources report otherwise

Binder | Trimeric HA Binding: RLU [RLU]
B1 | 830
B2 | 19800
B3 | 749
B4 | 24600

target: recombinant homotrimeric HA A/Wisconsin/67/05 H3N2 (Influenza A virus A/Wisconsin/67/2005(H3N2)); experiment: protein microarray, purified IgG, trimeric HA; settings: remark: other sources report otherwise

Binder | Trimeric HA Binding: RLU [RLU]
B1 | 6900
B2 | 600
B3 | 24700
B4 | 1060

target: recombinant homotrimeric HA A/chicken/Vietnam/NCVD-016/08 H5N1 (Influenza A virus A/chicken/Vietnam/NCVD-016/2008(H5N1)); experiment: protein microarray, purified IgG, trimeric HA; settings: remark: other sources report otherwise

Binder | Trimeric HA Binding: RLU [RLU]
B1 | 338
B2 | 25200
B3 | 419
B4 | 22700

target: recombinant homotrimeric HA A/northern shoveler/California/HKWF115/07 H6N4 (Influenza A virus A/northern shoveler/California/HKWF115/2007(H6N1)); experiment: protein microarray, purified IgG, trimeric HA; settings: remark: other sources report otherwise

Binder | Trimeric HA Binding: RLU [RLU]
B1 | 76
B2 | 13200
B3 | 114
B4 | 18000
